Measurements taken from patent publication US20170015742A1 (published 2017).

Assays:
[1] = target: T1, recombinant human PDGF-BB (human, UniProt P01127 82-190); experiment: competition ELISA: DVD-Ig titrated against biotinylated hPDGF-BB binding to coated hPDGF-Rbeta-Fc
T1 construct: bought (CST cat#8912BF); also called hPDGF-BB; huPDGF-BB
Protocol: Plates were then washed four times with wash buffer (TBS, 0.05% Tween-20) and blocked with Superblock blocking buffer (Thermo Scientific, cat#37535). During the blocking step, supernatants, antibodies, benchmark compounds or DVD-Ig were diluted in assay diluent (10% Superblock containing 0.05% surfactamps) and an eight point titration of each sample molecule was performed. […] Following incubation, plates were washed four times with wash buffer. Detection reagent Streptavidin-polyHRP-40 (Fitzgerald, cat#65r-s104phrp) was diluted in assay diluent and added to plates (50 μL) for 45 minutes at 25° C. with shaking. Plates were washed four times with wash buffer and developed with the addition of Enhanced K-blue TMB substrate (Neogen, cat#308177). The reaction was stopped with 2N sulfuric acid (VWR, cat# BDH3500-1) and the absorbance was read at 450 nm-570 nm. […] Data was analyzed using Softmax Pro 4.8 software and IC₅₀ values calculated using a sigmoidal dose response (variable slope) fit in GraphPad Prism 5.

[2] = target: T2, recombinant human VEGF165 (human, UniProt P15692 207-395); experiment: cell-based or functional assay
[3] = target: T1, recombinant human PDGF-BB; experiment: cell-based or functional assay
[4] = target: T2, recombinant human VEGF165; experiment: competition ELISA: DVD-Ig titrated against biotinylated hVEGF165 binding to coated hVEGFR2-Fc
Protocol: To identify molecules that could block the binding of hVEGF₁₆₅ to the hVEGF-R2 (KDR/Flk-1) receptor, a competition ELISA was performed. […] Plates were then washed four times with wash buffer (TBS, 0.05% Tween-20) and blocked with Superblock blocking buffer (Thermo Scientific, cat#37535). […] The pre-incubated sample/hVEGF₁₆₅ complex was added to the coated plate at 50 μL in duplicate and incubated for 30 minutes at 25° C. with shaking. Following incubation, plates were washed four times with wash buffer. Streptavidin-polyHRP-40 (Fitzgerald cal#65r-s104phrp) was diluted in assay diluent (10% Superblock containing 0.05% surfactamps) and added to plates (50 μL) for 45 minutes at 25° C. with shaking. Plates were washed four times with wash buffer and developed with the addition of Enhanced K-blue TMB substrate (Neogen cat#308177). The reaction was stopped with 2N sulfuric acid (VWR, cat# BDH3500-1) and the absorbance was read at 450 nm-570 nm. A decrease in observed optical density indicates the test molecule is blocking the hVEGF₁₆₅ binding to the hVEGF-R2-Fc. Data was analyzed using Softmax Pro 4.8 software and IC₅₀ values calculated using a sigmoidal dose response (variable slope) fit in GraphPad Prism 5.

[5] = target: T3, human VEGF 165 (PR-1350437) (human, UniProt P15692 207-395); experiment: SPR (Biacore), binding protein captured by anti-human Fc, antigen injected
T3 construct: Purified recombinant protein; also called hVEGF165
Protocol: (§1) Unreacted moieties on the biosensor surface were blocked with ethanolamine. For kinetic analysis, rate equations derived from the 1:1 Langmuir binding model were fitted simultaneously to multiple antigen injections (using global fit analysis) with the use of Scrubber 2 (BioLogic Software), Biacore Biaevaluation 4.0.1 software or Biacore T100 Evaluation software. Purified antibodies or DVD-Ig molecules were diluted in running buffer for capture across goat anti-human Fc reaction surfaces. Antibodies or DVD-Ig molecules to be captured as a ligand (1 μg/ml) were injected over reaction matrices at a flow rate of 10 μl/minute. During the assay, all measurements were referenced against the capture surface alone (i.e., with no captured antibody or DVD-Ig molecule). […] The equilibrium dissociation constant KD (M) of the reaction between antibodies and the target antigen was then calculated from the kinetic rate constants by the following formula: KD=Koff/Kₒₙ. Binding was recorded as a function of time and kinetic rate constants were calculated. In this assay, on-rates as fast as 10⁶M⁻¹s⁻¹ and off-rates as slow as 10⁻⁶ s⁻¹ could be measured.

[6] = target: T4, cyno PDGF-B (PR-1575400) (cynomolgus monkey, UniProt P01127 82-190 (human entry), limits assumed); experiment: as above
T4 construct: Recombinant; also called cynomolgus monkey PDGF-BB; cynoPDGF-BB
T4 chain: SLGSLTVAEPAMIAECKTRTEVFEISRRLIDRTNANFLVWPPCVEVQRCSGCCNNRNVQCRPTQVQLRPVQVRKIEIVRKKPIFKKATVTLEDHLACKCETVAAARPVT
Protocol: as §1

[7] = target: T5, mouse PDGF-B (PR-1577160) (mouse, UniProt P31240 82-190); experiment: as above
T5 construct: Recombinant; also called mouse PDGF-BB; mPDGF-BB
T5 sequence (P31240 82-190 limits assumed): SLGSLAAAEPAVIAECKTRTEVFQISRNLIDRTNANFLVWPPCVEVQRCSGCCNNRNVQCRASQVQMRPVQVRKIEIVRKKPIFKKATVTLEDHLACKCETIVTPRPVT
Protocol: as §1

[8] = target: T6, human VEGF 121 (PR-1515941) (human, UniProt P15692 207-395); experiment: as above
T6 construct: Recombinant isoform; also called hVEGF121
T6 sequence: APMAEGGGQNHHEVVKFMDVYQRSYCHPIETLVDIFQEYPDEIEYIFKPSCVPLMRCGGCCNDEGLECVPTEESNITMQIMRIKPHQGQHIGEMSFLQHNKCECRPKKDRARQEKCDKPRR
Protocol: as §1

[9] = target: T7, human PDGF-B (PR-1373790) (human, UniProt P01127 82-190); experiment: as above
T7 construct: Soluble recombinant PDGF-BB homodimer; also called human PDGF-BB; hPDGF-BB
Protocol: as §1

[10] = target: T8, human VEGF 111 (PR-1520687) (human, UniProt P15692-10 27-137); experiment: as above
T8 construct: also called hVEGF111
T8 sequence (looked up): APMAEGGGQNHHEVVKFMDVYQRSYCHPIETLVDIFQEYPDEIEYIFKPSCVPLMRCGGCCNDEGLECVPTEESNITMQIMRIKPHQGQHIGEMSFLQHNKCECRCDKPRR
Protocol: as §1

[11] = target: T4, cyno PDGF-B (PR-1575400); experiment: SPR (Biacore), mAb captured by anti-human Fc, antigen injected
Protocol: as §1

[12] = target: T5, mouse PDGF-B (PR-1577160); experiment: as above
Protocol: as §1

[13] = target: T7, human PDGF-B (PR-1373790); experiment: as above
Protocol: as §1

[14] = target: T3, human VEGF 165 (PR-1350437); experiment: as above
Protocol: as §1

[15] = target: T6, human VEGF 121 (PR-1515941); experiment: as above
Protocol: as §1

[16] = target: T8, human VEGF 111 (PR-1520687); experiment: as above
Protocol: as §1

B1: 4G8.3-GS(9)-9E8.4 (g) DVD-Ig (PR-1572102) (bispecific antibody, human IgG1, kappa, L234A L235A)
heavy: EVQLVQSGSELKKPGASVKVSCKASGYTFTNYGMYWVRQAPGQGLEWMGWINTETGKPTYADDFKGRFVFSLDTSVSTAYLQISSLKAEDTAVYYCARTNYYYRSYIFYFDYWGQGTMVTVSSGGGGSGGGGSEVTLRESGPALVKPTQTLTLTCTFSGFSLSTYGMGVGWIRQPPGKALEWLANIWWDDDKYYNPSLKNRLTISKDTSKNQVVLTMTNMDPVDTATYYCARIESIGTTYSFDYWGQGTMVTVSSASTKGPSVFPLAPSSKSTSGGTAALGCLVKDYFPEPVTVSWNSGALTSGVHTFPAVLQSSGLYSLSSVVTVPSSSLGTQTYICNVNHKPSNTKVDKKVEPKSCDKTHTCPPCPAPEAAGGPSVFLFPPKPKDTLMISRTPEVTCVVVDVSHEDPEVKFNWYVDGVEVHNAKTKPREEQYNSTYRVVSVLTVLHQDWLNGKEYKCKVSNKALPAPIEKTISKAKGQPREPQVYTLPPSREEMTKNQVSLTCLVKGFYPSDIAVEWESNGQPENNYKTTPPVLDSDGSFFLYSKLTVDKSRWQQGNVFSCSVMHEALHNAYTQKSLSLSPGK
light: DTVLTQSPATLSLSPGERATLSCRASESVSTHMHWYQQKPGQAPRLLIYGASNLESGVPARFSGSGSGTDFTLTISSLEPEDFAVYFCQQSWNDPFTFGQGTKLEIKRGGSGGGGSGEFVLTQSPGTLSLSPGERATLSCERSSGDIGDSYVSWYQQKPGQAPRLVIYADDQRPSGIPDRFSGSGSGTDFTLTISRLEPEDFAVYYCQSYDINIDIVFGGGTKVEIKRTVAAPSVFIFPPSDEQLKSGTASVVCLLNNFYPREAKVQWKVDNALQSGNSQESVTEQDSKDSTYSLSSTLTLSKADYEKHKVYACEVTHQGLSSPVTKSFNRGEC
notes: DVD-Ig, outer hBDB-4G8.3 (VEGF), inner hBDI-9E8.4 (PDGF); IgG1 L234A, L235A, H435A / kappa; also called 4G8.3-GS-9E8.4 (g); DVD-Ig-1
IC50 [1]: > 5000 pM | HMVEC-d hVEGF165 Potency IC50 [2]: 417 pM | NIH-3T3 hPDGF-BB Potency IC50 [3]: 528 pM | IC50 [4]: 157 pM

B2: 9E10.1-GS-33675 anti-VEGF/anti-PDGF DVD-Ig (PR-1610561) (bispecific antibody, human IgG1, kappa, L234A L235A)
heavy: EIQLVQSGSELKKPGASVKVSCKASGYTFTNYGMYWVKQAPGQGLEYMGWIDTETGRPTYADDFKGRFVFSLDTSVSTAYLQISSLKAEDTAVYFCARWSGDTTGIRGPWFAYWGQGTLVTVSSGGGGSGGGGSEVTLRESGPALVKPTQTLTLTCTFSGFSLSTYGMGVGWIRQPPGKALEWLANIWWDDDKYYNPSLKNRLTISKDTSKNQVVLTMTNMDPVDTATYYCARIESSGPKYSFDYWGQGTMVTVSSASTKGPSVFPLAPSSKSTSGGTAALGCLVKDYFPEPVTVSWNSGALTSGVHTFPAVLQSSGLYSLSSVVTVPSSSLGTQTYICNVNHKPSNTKVDKKVEPKSCDKTHTCPPCPAPEAAGGPSVFLFPPKPKDTLMISRTPEVTCVVVDVSHEDPEVKFNWYVDGVEVHNAKTKPREEQYNSTYRVVSVLTVLHQDWLNGKEYKCKVSNKALPAPIEKTISKAKGQPREPQVYTLPPSREEMTKNQVSLTCLVKGFYPSDIAVEWESNGQPENNYKTTPPVLDSDGSFFLYSKLTVDKSRWQQGNVFSCSVMHEALHNAYTQKSLSLSPGK
light: DIRMTQSPSSLSASVGDRVTIECLASEDIYSDLAWYQQKPGKSPKLLIYNANGLQNGVPSRFSGSGSGTDYSLTISSLQPEDVATYFCQQYNYFPGTFGQGTKLEIKGGSGGGGSGGEIVLTQSPGTLSLSPGERATLSCRASSGSIWYSFVSWYQQKPGQAPRLLIYADDQRASGIPDRFSGSGSGTDFTLTISRLEPEDFAVYYCQSYGINIDVVFGGGTKVEIKRTVAAPSVFIFPPSDEQLKSGTASVVCLLNNFYPREAKVQWKVDNALQSGNSQESVTEQDSKDSTYSLSSTLTLSKADYEKHKVYACEVTHQGLSSPVTKSFNRGEC
notes: DVD-Ig: outer domain hBEW-9E10.1 (VEGF), inner domain CL-33675 (PDGF), linkers GS-H10 / GS-L10(dR), human IgG1 L234A, L235A, H435A, kappa; Lot 2213329; also called hu VEGF 9E10.1-GS-hu PDGF 33675 [hu IgG1/k]; LALA H435A
Kd [5]: 65 pM | koff [5]: 3.4e-05 s⁻¹ | kon [5]: 520000 M⁻¹ s⁻¹ | Kd [6]: ≤ 0.81 pM | koff [6]: 8.1e-06 s⁻¹ | kon [6]: ≥ 1e+07 M⁻¹ s⁻¹ | Kd [7]: ≤ 5.2 pM | koff [7]: 5.2e-05 s⁻¹ | kon [7]: ≥ 1e+07 M⁻¹ s⁻¹ | Kd [8]: 230 pM | koff [8]: 4.1e-05 s⁻¹ | kon [8]: 180000 M⁻¹ s⁻¹ | Kd [9]: ≤ 5.2 pM | koff [9]: 5.2e-05 s⁻¹ | kon [9]: ≥ 1e+07 M⁻¹ s⁻¹ | Kd [10]: 290 pM | koff [10]: 4.3e-05 s⁻¹ | kon [10]: 150000 M⁻¹ s⁻¹

B3: CL-33675, PR-1593725 (antibody, V domains shown)
VH: EVTLRESGPALVKPTQTLTLTCTFSGFSLSTYGMGVGWIRQPPGKALEWLANIWWDDDKYYNPSLKNRLTISKDTSKNQVVLTMTNMDPVDTATYYCARIESSGPKYSFDYWGQGTMVTVSS
VL: EIVLTQSPGTLSLSPGERATLSCRASSGSIWYSFVSWYQQKPGQAPRLLIYADDQRASGIPDRFSGSGSGTDFTLTISRLEPEDFAVYYCQSYGINIDVVFGGGTKVEIK
notes: also called CL-33675-IgG
Kd [11]: ≤ 1.3 pM | koff [11]: 1.3e-05 s⁻¹ | kon [11]: ≥ 1e+07 M⁻¹ s⁻¹ | Kd [12]: ≤ 0.58 pM | koff [12]: 5.8e-06 s⁻¹ | kon [12]: ≥ 1e+07 M⁻¹ s⁻¹ | Kd [13]: ≤ 0.58 pM | koff [13]: 5.8e-06 s⁻¹ | kon [13]: ≥ 1e+07 M⁻¹ s⁻¹

B4: AB642 (9E10.1), PR-1594047 (antibody, V domains shown)
VH: EIQLVQSGSELKKPGASVKVSCKASGYTFTNYGMYWVKQAPGQGLEYMGWIDTETGRPTYADDFKGRFVFSLDTSVSTAYLQISSLKAEDTAVYFCARWSGDTTGIRGPWFAYWGQGTLVTVSS
VL: DIRMTQSPSSLSASVGDRVTIECLASEDIYSDLAWYQQKPGKSPKLLIYNANGLQNGVPSRFSGSGSGTDYSLTISSLQPEDVATYFCQQYNYFPGTFGQGTKLEIK
notes: Parental anti-VEGF mAb of PR-1610561; Humanized IgG; also called hBEW-9E10.1
Kd [14]: 1.8 pM | koff [14]: 2.8e-05 s⁻¹ | kon [14]: 1.6e+07 M⁻¹ s⁻¹ | Kd [15]: 21 pM | koff [15]: 6.8e-05 s⁻¹ | kon [15]: 3.2e+06 M⁻¹ s⁻¹ | Kd [16]: 58 pM | koff [16]: 0.0001 s⁻¹ | kon [16]: 1.8e+06 M⁻¹ s⁻¹
